Test results taken from patent publication US20230201308A1, “TREATMENT OF CORONAVIRUS INFECTION WITH […]” (Eiger Biopharmaceuticals, Inc., priority 2020, published 2023).
Like-named read-outs stand apart in the source and are kept apart here.

Test system: SARS-CoV-2
[1] = High risk population, Brazil and Toronto, N = 709
[2] = High risk population, Brazil and Toronto, N = 709 vs placebo N = 836
[3] = High risk population, Brazil, N = 698

B1: pegylated interferon lambda-1a (protein)
chain: MKPTTTGKGCHIGRFKSLSPQELASFKKARDALEESLKLKNWSCSSPVFPGNWDLRLLQVRERPVALEAELALTLKVLEAAAGPALEDVLDQPLHTLHHILSQLQACIQPQPTAGPRPRGRLHHWLHRLQEAPKKESAGCLEASVTFNLFRLLTRDLKYVADGNLSLRTSTHPEST
modifications: PEG
notes: 180 mcg subcutaneous injection
ER visit ≥6 h or hospitalization due to COVID-19: events/patients (All): 25/931 | All cause death or hospitalization for COVID-19: events/patients (All, Brazil+Toronto): 24/931 | All cause death or hospitalization for COVID-19: Bayes prob, Dichotomous (All, vs placebo): 0.951 | All cause death or hospitalization for COVID-19: Bayes prob, TTE (All, vs placebo): 0.9557 | All cause death or hospitalization for COVID-19: HR (95% CrI), TTE (All, vs placebo): 0.65 (0.39, 1.05) | All cause death or hospitalization for COVID-19: RR (95% CrI), Dichotomous (All, vs placebo): 0.66 (0.40, 1.07) | ER visit ≥6 h or hospitalization due to COVID-19: Bayes prob, Dichotomous (All, vs placebo): 0.999 | ER visit ≥6 h or hospitalization due to COVID-19: Bayes prob, TTE (All, vs placebo): 0.9995 | ER visit ≥6 h or hospitalization due to COVID-19: HR (95% CrI), TTE (All, vs placebo): 0.47 (0.29, 0.73) | ER visit ≥6 h or hospitalization due to COVID-19: RR (95% CrI), Dichotomous (All, vs placebo): 0.49 (0.30, 0.76) | HR, all-cause mortality or hospitalization due to COVID-19, Time-to-Event analysis (Brazil+Toronto combined): 0.65 | RR, all-cause mortality or hospitalization due to COVID-19 (Brazil+Toronto combined): 0.66 | All cause ER visit >6 h, hospitalization, or death: percentage [1]: (4.2%) | All cause ER visit >6 h, hospitalization, or death: total [1]: 30 | All cause ER visit, hospitalization, or death: percentage [1]: (13.7%) | All cause ER visit, hospitalization, or death: total [1]: 97 | All cause death or hospitalization due to COVID-19: percentage [1]: (3.1%) | All cause death or hospitalization due to COVID-19: total [1]: 22 | Days of hospitalization [1]: 0 days | Days on mechanical ventilation [1]: 0 days | Days to recovery: median [1]: 14 days | Death due to COVID-19: percentage [1]: (0.1%) | Death due to COVID-19: total [1]: 1 | Death or hospitalization due to COVID-19: percentage [1]: (2.8%) | Death or hospitalization due to COVID-19: total [1]: 20 | Hospitalization for COVID-19 (excluding those resulting in death): percentage [1]: (2.7%) | Hospitalization for COVID-19 (excluding those resulting in death): total [1]: 19 | Hospitalization or ER (any duration) for COVID-19: percentage [1]: (10.7%) | Hospitalization or ER (any duration) for COVID-19: total [1]: 76 | Hospitalization or ER >6 h for COVID-19: percentage [1]: (3.1%) | Hospitalization or ER >6 h for COVID-19: total [1]: 22 | Mechanical ventilation: percentage [1]: (0.6%) | Mechanical ventilation: total [1]: 4 | All cause ER visit >6 h, hospitalization, or death: Pr (Superiority) [2]: 0.983 | All cause ER visit >6 h, hospitalization, or death: RR (95% CrI), estimated treatment effect [2]: 0.64 (0.41, 0.97) | All cause ER visit, hospitalization, or death: Pr (Superiority) [2]: 0.887 | All cause ER visit, hospitalization, or death: RR (95% CrI), estimated treatment effect [2]: 0.86 (0.68, 1.10) | All cause death or hospitalization due to COVID-19: Pr (Superiority) [2]: 0.927 | All cause death or hospitalization due to COVID-19: RR (95% CrI), estimated treatment effect [2]: 0.69 (0.41, 1.14) | Days of hospitalization: MD (95% CrI), estimated treatment effect [2]: −1.39 (−4.38, 1.20) | Days of hospitalization: Pr (Superiority) [2]: 0.8509 | Days on mechanical ventilation: MD (95% CrI), estimated treatment effect [2]: −4.47 (−6.89, 3.09) | Days on mechanical ventilation: Pr (Superiority) [2]: 0.9052 | Days to death for COVID-19: HR (95% CrI), estimated treatment effect [2]: 0.23 (0.01, 1.95) | Days to death for COVID-19: Pr (Superiority) [2]: 0.9040 | Days to hospitalization for COVID-19: HR (95% CrI), estimated treatment effect [2]: 0.57 (0.33, 0.99) | Days to hospitalization for COVID-19: Pr (Superiority) [2]: 0.9770 | Days to hospitalization or ER visit >6 h for COVID-19: HR (95% CrI), estimated treatment effect [2]: 0.47 (0.29, 0.74) | Days to hospitalization or ER visit >6 h for COVID-19: Pr (Superiority) [2]: 0.9992 | Days to hospitalization or death for COVID-19: HR (95% CrI), estimated treatment effect [2]: 0.61 (0.35, 1.07) | Days to hospitalization or death for COVID-19: Pr (Superiority) [2]: 0.9610 | Days to recovery: HR (95% CrI), estimated treatment effect [2]: 0.93 (0.83, 1.04) | Days to recovery: Pr (Superiority) [2]: 0.8862 | Death due to COVID-19: Pr (Superiority) [2]: 0.847 | Death due to COVID-19: RR (95% CrI), estimated treatment effect [2]: 0.42 (0.05, 2.06) | Death or hospitalization due to COVID-19: Pr (Superiority) [2]: 0.961 | Death or hospitalization due to COVID-19: RR (95% CrI), estimated treatment effect [2]: 0.63 (0.37, 1.05) | Hospitalization for COVID-19 (excluding those resulting in death): Pr (Superiority) [2]: 0.931 | Hospitalization for COVID-19 (excluding those resulting in death): RR (95% CrI), estimated treatment effect [2]: 0.67 (0.38, 1.14) | Hospitalization or ER (any duration) for COVID-19: Pr (Superiority) [2]: 0.992 | Hospitalization or ER (any duration) for COVID-19: RR (95% CrI), estimated treatment effect [2]: 0.72 (0.55, 0.94) | Hospitalization or ER >6 h for COVID-19: Pr (Superiority) [2]: 0.999 | Hospitalization or ER >6 h for COVID-19: RR (95% CI), estimated treatment effect [2]: 0.49 (0.30, 0.78) | Mechanical ventilation: Pr (Superiority) [2]: 0.716 | Mechanical ventilation: RR (95% CrI), estimated treatment effect [2]: 0.72 (0.21, 2.20) | All cause ER visit >6 h, hospitalization, or death: percentage [3]: (4.3%) | All cause ER visit >6 h, hospitalization, or death: total [3]: 30 | All cause ER visit, hospitalization, or death: percentage [3]: (13.9%) | All cause ER visit, hospitalization, or death: total [3]: 97 | All cause death or hospitalization due to COVID-19: percentage [3]: (3.2%) | All cause death or hospitalization due to COVID-19: total [3]: 22 | Days of hospitalization [3]: 0 days | Days on mechanical ventilation [3]: 0 days | Days to recovery: median [3]: 14 days | Death due to COVID-19: percentage [3]: (0.1%) | Death due to COVID-19: total [3]: 1 | Death or hospitalization due to COVID-19: percentage [3]: (2.9%) | Death or hospitalization due to COVID-19: total [3]: 20 | Hospitalization for COVID-19 (excluding those resulting in death): percentage [3]: (2.7%) | Hospitalization for COVID-19 (excluding those resulting in death): total [3]: 19 | Hospitalization or ER (any duration) for COVID-19: percentage [3]: (10.9%)
